Consider 1 protein from FireProtDB (doi:10.1021/bi301421v).

Several values for one entry are separate records, joined by “and”; a condition that tells them apart may be missing. Equal values may be shown once.

The conditions of the data set: Helicobacter pylori (strain ATCC 700392 / 26695); pH 7.2; Thermal; CD; Tris-HCl 20 mM; transition: 2; reversible: yes; whole UniProt chain shown.

B1: Arginase wild type, O25949 (protein)
chain: MILVGLEAELGASKRGTDKGVRRLREALSATHGDVIKGMQTITQERCVLYKEFRYAKNFEDYYLFCKENLIPCMKEVFEKKEFPLILSSEHANMFGIFQAFRSVHKDKKIGILYLDAHADIHTAYDSDSKHIHGMPLGMVLNRVRSGFNRMSESEEKAWQKLCSLGLEKGGLEIDPKCLVYFGVRSTEQSERDVIRELQIPLFSVDAIRENMQEVVQKTKESLKAVDIIYLSLDLDIMDGKLFTSTGVRENNGLSFDELKQLLGLLLESFKDRLKAVEVTEYNPTVSIKHNNEEEKQVLEILDLIINSCKIKDKKHSFARSY
A word on the Tm: it is the temperature at the midpoint of the melting transition. Turning to B1, the Tm is 70 °C and 68 °C.
